Biological target: MYB96 (Arabidopsis thaliana) (UniProt Q24JK1)
Assay: cell_activity
Settings: GUS reporter activation in Arabidopsis protoplasts

Chain of UniProt Q24JK1 (Q24JK1 whole entry): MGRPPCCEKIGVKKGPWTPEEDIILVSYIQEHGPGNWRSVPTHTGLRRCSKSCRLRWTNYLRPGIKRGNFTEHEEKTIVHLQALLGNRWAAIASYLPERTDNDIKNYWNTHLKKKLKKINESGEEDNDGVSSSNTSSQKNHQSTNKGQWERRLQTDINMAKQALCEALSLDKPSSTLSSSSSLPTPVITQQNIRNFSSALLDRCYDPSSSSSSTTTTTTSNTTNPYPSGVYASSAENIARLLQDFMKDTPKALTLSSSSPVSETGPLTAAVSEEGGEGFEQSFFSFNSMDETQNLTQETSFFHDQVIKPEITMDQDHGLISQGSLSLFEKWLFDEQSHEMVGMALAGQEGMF

## KCS1-BS in pKCS-P reporter
  activity: > 6 fold

Source: patent publication US8716556
